Experimental data reported in patent publication US8263074B2, “Fibroblast growth factor receptor-1 inhibitors and methods of treatment thereof” (ImClone LLC, priority 2003, dated 2012).

Assays:
[1] = Body weight, food intake and adipose tissue in db/db mice; format: in vivo; details: 4 mg/kg s.c.
Protocol: The db/db 7 week old mice were injected subcutaneously with 4 mg/kg antibody on a Monday, Wednesday, and Friday schedule with body weights being measured before each injection and on day 7. Food intake was monitored as well on days 1, 2, 3, 4, and 7. The db/db animals were sacrificed on day 7 and their intrascapular brown fat, epididymal white adipose tissue, and inguinal subcutaneous white adipose tissue were sampled and weighed.

FGFR-1(IIIc) = FGFR-1(IIIc) (Homo sapiens, UniProt P11362); experiment: ELISA binding assay; design: purchased R&D Systems
Protocol: Recombinant FGFRs (R&D systems) at a concentration of 1 μg/ml in PBS were coated on 96-well plates at room temperature for 2 hrs. The plates were washed 3 times with 0.2% Tween20/PBS, and blocked with 5% milk/PBS for 2 hrs before use. FR1-H7 or FR1-A1 was added to the plate and serially diluted in 0.2% Tween20/PBS. The plate was incubated at room temperature for 2 more hrs. The captured antibodies were detected using an anti-human light chain monoclonal antibody conjugated with […] (Pierce Biotechnology, Rockford, Ill.) solution prepared according to supplier's instructions.

human adipocytes = experiment: Adipocyte proliferation assay (3H-thymidine); format: cell-based; details: 15 ng/ml FGF-2, 60 hrs
Protocol: Two-week-old (after induced differentiation) grade 2 human adipocytes were obtained from Zen-Bio Inc. (Research Triangle, N.C.), and were maintained in the shipping media in a 96-well tissue culture plate. To evaluate the effects of FGF-2 on the proliferation of adipocytes, recombinant FGF-2 (R&D systems) was serially diluted and added to the wells of the plate. The cells were allowed to grow in the incubator for 60 hrs, before the level of ^3H-thymidine incorporation was determined. To evaluate the effects of FR1-H7 on adipocytes proliferation, the antibody was serially diluted and added to the cells before addition of recombinant FGF-2 to a final concentration of 15 ng/ml. ^3H-thymidine incorporation was determined after 60 hrs of incubation.

[2] = Repeated-dose study in female athymic nude mice: body weight, food intake, rearing, blood glucose; format: in vivo
Protocol: Female athymic nude mice (Cr1:NU/NU-nuBR, Charles River Laboratories, Wilmington, Mass.) were housed 4-5 per cage. Mice were given autoclaved food (Lab Diet #5001, PMI Feeds Inc., St. Louis, Mo.) and water ad libitum. All animal use in this study was conducted in compliance with approved institutional animal care and use protocols, and according to NIH guidelines (Guide for the Care and Use of Laboratory Animals, NIH publication no. 86-23, 1985).
In one assay, mice were injected intraperitoneally (i.p.) with FR1-H7 at 0.19, 1.9, and 19 mg/kg body weight (n=5 per group). In another assay, mice were injected subcutaneously (s.c.) with the antibody, at 0.4, 4, and 40 mg/kg body weight. In control arms, mice were treated with saline i.p. or s.c. In addition, one group of mice was left untreated (n=4). All treatments were given at a volume of 10 μl/g body weight in Saline. Treatments were started on a Wednesday (Day 0) with additional treatments on the following Friday, Monday, Wednesday, and Friday. After this 9-day treatment period mice received no additional treatments.
Alternatively, female athymic nude mice were injected (i.p.) with saline, 2 mg/kg, or 20 mg/kg FR1-A1 on a Monday (Day 0) and Wednesday. Body weights were measured before the first injection, and on Day 2 and Day 5. Food intake per group was measured 2 days after the first injection.
The body weights of all animals were measured 3 times/week. Food consumption, behavior, and serum glucose were evaluated as follows. Food Intake Measurement: Prior to the treatment on Day 2 mice were placed in a new cage and the weight of the food container in the cage top was weighed. Prior to the treatment on Day 5 the weight of the food container was measured again. The difference in the Day 2 to Day 5 food container weight was divided by the number of mice per cage and the number of days between the measurements to give a food intake per mouse per 24 hrs. Activity Measurement: On Day 12, 3 days after the final treatment, mice were placed individually into a new cage and the number of rearings was counted over a 1 min period. Blood Glucose Measurement On Day 16, 7 days after the final treatment, non-fasted blood glucose was measured in blood collected from the tip of the tail using an Ascensia Elite XL blood glucose meter (glucose oxidase method, Bayer, Pittsburg, Pa.).

FGFR-2b = target: T1, FGFR-2b (Homo sapiens, UniProt P21802); experiment: BiaCore binding kinetics; details: BiaCore kinetic analysis
T1 construct: purchased R&D Systems

[3] = Energy expenditure and body composition in C57 black mice (incl. paired-feeding); format: in vivo
Protocol: To elucidate the mechanism of the weight-loss induced by FGFR antagonistic antibodies, the effect of FR1-H7 on energy expenditure and body composition of mice was studied. […] A paired-feeding experiment was also conducted which food consumption of control antibody treated animals was restrained to exact that of FR1-H7 treated animals (FIG. 27). […] Moreover, body composition (Day 1 and 5) and energy consumption determined for the two groups were mostly indistinguishable.
This study consisted of two stages. In the first stage, female C57 black mice (Charles River Laboratories, Wilmington, Mass.) were randomized into two groups (n=16) and individually housed in a metabolic cage. Both groups of Mice were given hi-carbohydrate content chow and water ad libitum. […] Body composition was determined using NMR on Day 1 and Day 5. Body weight and food consumption were determined daily. Energy expenditure, ambulatory activities, and oxygen consumption and were monitored continuously. RER were calculated based on energy expenditure and oxygen consumption.
In the second stage, both groups of Mice were given water ad libitum, but only 2 g of hi-carbohydrate content chow each animal per day. The amount of food given was determined in the first stage experiment to be the averaged daily food assumption of those animals one day after being treated with FR1-H7 (10 mg/kg body weight, intraperitonaeally). […]

FGFR-2c = target: T2, FGFR-2c (Homo sapiens, UniProt P21802); experiment: BiaCore binding kinetics; details: BiaCore kinetic analysis
T2 construct: purchased R&D Systems
T2 sequence (P21802 22-821): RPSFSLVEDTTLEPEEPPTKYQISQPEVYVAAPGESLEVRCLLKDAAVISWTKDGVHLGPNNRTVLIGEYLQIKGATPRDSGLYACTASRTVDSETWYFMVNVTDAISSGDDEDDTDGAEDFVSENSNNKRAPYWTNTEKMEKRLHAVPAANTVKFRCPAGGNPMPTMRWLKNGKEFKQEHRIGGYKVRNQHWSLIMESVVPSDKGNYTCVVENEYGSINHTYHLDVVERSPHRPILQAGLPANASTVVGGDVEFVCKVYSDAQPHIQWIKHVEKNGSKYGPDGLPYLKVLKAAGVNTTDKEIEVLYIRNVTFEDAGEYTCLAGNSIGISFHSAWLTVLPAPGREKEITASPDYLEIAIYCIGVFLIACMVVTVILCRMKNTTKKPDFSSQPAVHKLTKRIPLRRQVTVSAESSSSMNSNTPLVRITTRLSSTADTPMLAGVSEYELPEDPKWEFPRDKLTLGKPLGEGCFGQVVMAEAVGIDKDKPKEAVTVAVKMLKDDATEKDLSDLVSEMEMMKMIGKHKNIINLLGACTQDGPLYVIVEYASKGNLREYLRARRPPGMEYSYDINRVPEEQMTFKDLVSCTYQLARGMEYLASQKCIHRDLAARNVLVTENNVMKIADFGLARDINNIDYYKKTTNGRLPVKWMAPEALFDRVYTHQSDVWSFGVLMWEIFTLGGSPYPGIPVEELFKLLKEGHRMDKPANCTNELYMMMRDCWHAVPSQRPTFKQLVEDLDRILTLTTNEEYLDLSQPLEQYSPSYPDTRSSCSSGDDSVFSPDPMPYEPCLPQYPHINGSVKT

T1 sequence (P21802 22-822 isoform P21802-3 limits assumed): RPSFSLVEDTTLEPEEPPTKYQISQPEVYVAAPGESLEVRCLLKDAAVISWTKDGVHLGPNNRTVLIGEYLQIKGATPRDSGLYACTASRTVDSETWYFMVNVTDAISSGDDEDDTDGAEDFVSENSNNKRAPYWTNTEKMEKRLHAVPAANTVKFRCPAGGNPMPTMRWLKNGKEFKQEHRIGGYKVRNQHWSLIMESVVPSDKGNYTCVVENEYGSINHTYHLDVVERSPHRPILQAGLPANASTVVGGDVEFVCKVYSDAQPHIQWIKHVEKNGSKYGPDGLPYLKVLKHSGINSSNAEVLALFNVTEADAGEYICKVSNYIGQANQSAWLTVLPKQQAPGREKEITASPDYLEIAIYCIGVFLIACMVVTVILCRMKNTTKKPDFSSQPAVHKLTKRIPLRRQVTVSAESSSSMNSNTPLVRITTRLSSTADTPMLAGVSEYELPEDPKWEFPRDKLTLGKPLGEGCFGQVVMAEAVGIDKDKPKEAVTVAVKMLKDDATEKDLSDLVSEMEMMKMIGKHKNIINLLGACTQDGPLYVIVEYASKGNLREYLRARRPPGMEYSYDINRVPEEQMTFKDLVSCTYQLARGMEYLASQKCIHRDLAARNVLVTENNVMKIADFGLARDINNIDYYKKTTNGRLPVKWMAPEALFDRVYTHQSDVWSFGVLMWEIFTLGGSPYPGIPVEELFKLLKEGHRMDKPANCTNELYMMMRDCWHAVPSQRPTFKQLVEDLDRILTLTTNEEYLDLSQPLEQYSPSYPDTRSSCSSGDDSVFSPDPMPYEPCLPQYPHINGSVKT
FGFR-1(IIIc), sequence (P11362 22-822): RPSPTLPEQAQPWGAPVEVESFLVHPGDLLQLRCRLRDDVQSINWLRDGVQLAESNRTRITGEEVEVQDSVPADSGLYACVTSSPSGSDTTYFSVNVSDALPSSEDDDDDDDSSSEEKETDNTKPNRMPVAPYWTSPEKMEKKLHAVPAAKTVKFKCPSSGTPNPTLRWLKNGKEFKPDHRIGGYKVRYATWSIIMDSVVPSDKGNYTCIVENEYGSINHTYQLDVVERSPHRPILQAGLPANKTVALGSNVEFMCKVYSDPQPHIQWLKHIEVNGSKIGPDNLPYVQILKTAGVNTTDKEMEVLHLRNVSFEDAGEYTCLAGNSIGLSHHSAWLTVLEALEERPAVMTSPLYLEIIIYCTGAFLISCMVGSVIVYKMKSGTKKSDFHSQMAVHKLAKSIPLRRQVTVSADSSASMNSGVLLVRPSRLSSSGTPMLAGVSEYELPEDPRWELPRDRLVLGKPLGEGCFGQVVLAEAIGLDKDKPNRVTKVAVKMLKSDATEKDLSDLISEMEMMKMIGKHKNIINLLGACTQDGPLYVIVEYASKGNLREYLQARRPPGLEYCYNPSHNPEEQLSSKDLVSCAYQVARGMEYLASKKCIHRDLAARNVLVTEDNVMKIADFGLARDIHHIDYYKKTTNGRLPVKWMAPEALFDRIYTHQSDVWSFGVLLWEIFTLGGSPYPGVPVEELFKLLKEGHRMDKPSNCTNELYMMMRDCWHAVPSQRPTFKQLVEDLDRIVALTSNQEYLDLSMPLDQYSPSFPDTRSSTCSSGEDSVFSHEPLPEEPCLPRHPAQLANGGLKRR

B1: FR1-H7: human monoclonal antibody from phage Fab library, specific for FGFR-1(IIIb) and/or FGFR-1(IIIc), and/or FGFR-4(IIIc); VH/VL SEQ ID NOS:7, 8 (antibody, listed as Homo sapiens)
VH: MAEVQLVQSGAEVKKPGASVKVSCKVSGYTFTDYYMHWVQQAPGKGLEWMGLVDPEDGETIYAEKFQGRVTITADTSTDTAYMELSSLRSEDTAVYYCARDDYMDVWGKGTLVTVSSASTKGP
VL: LETTLTQSPDTLSLSPGEGATLSCRASQSVSGSALAWYQQKPGQAPRLLIYDASSRATGVPDRFSGSGSGADFSLTISRLEPEDFAVYSCQQYGSSPLTFGPGTKVDVKRTVAAPSVFIFPPSDEQLKSGTASVVCLLNNFYPREAKVQWKVD
food intakes ([1]; 7-day period): gradual reduction | weight reduction of the total body weight ([1]; Day 7): approximately 10% | weight of intrascapular brown fat tissue ([1]; day 7): significant reduction | weights of epididymal white adipose tissue and inguinal subcutaneous white adipose tissue ([1]; day 7): changed little | binding to FGFR-1(IIIc) (FGFR-1(IIIc)): strong affinities | FGF-2-stimulated proliferation of adipocytes (human adipocytes): inhibited the FGF-2-stimulated proliferation of adipocytes in a dose dependant manner | moderate weight loss continued one week after treatment was stopped ([2]; 1.9 mg/kg): ~0.5 g | time to complete weight recovery after treatment was stopped ([2]; 1.9 mg/kg): 25 days | weight loss of the total body weight ([2]; 1.9 mg/kg i.p., within the first 3 treatments): ~20% | lagging time of first significant weight gain after stop of treatments ([2]; 4 mg/kg s.c.): 14 days | unusual weight loss of the total body weight, one animal euthanized ([2]; 19 mg/kg group): ~50% | lagging time of first significant weight gain after stop of treatments ([2]; 19 mg/kg i.p.): 24 days | reduction of non-fasting blood glucose as fraction of the normal glucose level ([2]; 19 mg/kg i.p. and 40 mg/kg s.c. groups, one week after end of treatment): ⅓ | lagging time of first significant weight gain after stop of treatments ([2]; 40 mg/kg s.c.): 19 days | exploratory behavior (rearings per min in a novel environment) ([2]; Day 12): not significantly altered | maximal weight loss as fraction of the averaged body weight of the controls ([2]; dosage higher than 4 mg/kg): ⅓ | reduction of non-fasting food intake ([2]; groups that lost weight, between second and third treatment): approximately 35% | body weight change ([2]; two lowest dosages 0.19 and 0.4 mg/kg): slight weight gains | Kd (FGFR-2b): > 1000 nM | body weight, food intake, muscle and fat mass, energy expenditure and Respiratory Exchange Ratio (RER) compared to the controls ([3]; 10 mg/kg i.p. Day 2 and Day 4, food ad libitum): decreases | weight loss versus pair-fed control antibody treated animals ([3]; 10 mg/kg i.p., paired-feeding, 5-day period): identical weight-loss trajectories | Kd (FGFR-2c): > 1000 nM
